The numbers were not newly measured in paper PMC3726369, which cites them from elsewhere.

Read-outs that look alike come from different tables or passages of the source.

The target in data set [1] is LH receptor (Homo sapiens) (UniProt P22888).
For data set [2], the target named is LH receptor (Rattus norvegicus) (UniProt P16235).
The target in data set [3] is LH receptor (Homo sapiens) (UniProt P22888). The source holds these as a separate data set.

UniProt P22888, sequence (P22888 27-699): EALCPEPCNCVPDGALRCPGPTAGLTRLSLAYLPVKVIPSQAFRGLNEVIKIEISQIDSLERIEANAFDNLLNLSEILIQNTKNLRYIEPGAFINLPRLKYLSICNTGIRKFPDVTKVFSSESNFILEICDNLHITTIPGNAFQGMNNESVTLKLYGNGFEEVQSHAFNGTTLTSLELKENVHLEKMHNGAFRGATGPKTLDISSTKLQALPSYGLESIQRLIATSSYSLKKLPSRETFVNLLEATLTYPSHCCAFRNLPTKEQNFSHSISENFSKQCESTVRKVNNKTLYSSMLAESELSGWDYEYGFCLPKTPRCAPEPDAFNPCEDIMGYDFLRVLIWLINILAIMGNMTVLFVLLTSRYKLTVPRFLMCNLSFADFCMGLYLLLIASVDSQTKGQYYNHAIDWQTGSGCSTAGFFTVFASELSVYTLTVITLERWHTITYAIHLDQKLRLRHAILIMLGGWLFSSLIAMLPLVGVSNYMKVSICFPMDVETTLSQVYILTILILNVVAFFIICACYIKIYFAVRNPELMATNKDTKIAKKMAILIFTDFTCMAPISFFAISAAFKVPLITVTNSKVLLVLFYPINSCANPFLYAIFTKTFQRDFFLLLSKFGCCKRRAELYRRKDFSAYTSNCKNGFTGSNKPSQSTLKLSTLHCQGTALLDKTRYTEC
UniProt P16235, sequence (P16235 27-700): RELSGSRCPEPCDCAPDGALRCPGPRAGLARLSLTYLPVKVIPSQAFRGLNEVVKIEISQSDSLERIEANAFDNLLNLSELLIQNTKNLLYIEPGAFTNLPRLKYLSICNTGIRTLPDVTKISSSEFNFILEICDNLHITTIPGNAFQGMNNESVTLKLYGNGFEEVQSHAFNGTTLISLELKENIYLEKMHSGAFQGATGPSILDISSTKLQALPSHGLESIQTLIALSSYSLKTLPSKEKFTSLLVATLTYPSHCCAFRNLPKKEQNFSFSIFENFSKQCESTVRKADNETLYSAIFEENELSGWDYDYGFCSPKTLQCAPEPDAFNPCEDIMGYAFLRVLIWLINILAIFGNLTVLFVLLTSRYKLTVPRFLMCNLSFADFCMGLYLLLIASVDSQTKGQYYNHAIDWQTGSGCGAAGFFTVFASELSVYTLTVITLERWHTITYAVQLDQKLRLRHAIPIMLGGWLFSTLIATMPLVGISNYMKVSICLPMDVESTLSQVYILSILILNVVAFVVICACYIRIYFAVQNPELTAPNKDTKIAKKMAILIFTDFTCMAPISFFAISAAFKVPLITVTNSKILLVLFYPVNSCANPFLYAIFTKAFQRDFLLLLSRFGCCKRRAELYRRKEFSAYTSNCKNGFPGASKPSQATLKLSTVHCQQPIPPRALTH

With LH (from UniProt P01215), the results for the Kd in data set [1] and in data set [2] were 9 nM and 0.09 nM, respectively.
Take hCG (from UniProt P01215): the Kd (in general, a measure of binding affinity in units of concentration) in data set [3] was 4 nM.
